Publication PMC11443083

Key:
[1] = target: T1, PAR1 receptor (1–425 amino acids) Y350A (human) (UniProt P25116)
T1 sequence: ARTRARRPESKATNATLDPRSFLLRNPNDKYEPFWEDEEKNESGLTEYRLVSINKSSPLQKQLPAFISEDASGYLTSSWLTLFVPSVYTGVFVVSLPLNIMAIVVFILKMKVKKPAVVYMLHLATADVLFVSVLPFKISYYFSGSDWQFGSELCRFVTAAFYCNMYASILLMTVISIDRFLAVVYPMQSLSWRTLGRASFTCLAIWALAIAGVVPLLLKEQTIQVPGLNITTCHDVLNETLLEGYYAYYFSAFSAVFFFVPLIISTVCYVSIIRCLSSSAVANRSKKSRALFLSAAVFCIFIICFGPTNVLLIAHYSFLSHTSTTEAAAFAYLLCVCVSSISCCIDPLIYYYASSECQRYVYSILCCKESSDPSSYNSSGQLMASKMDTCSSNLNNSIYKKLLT

[2] = target: T2, PAR1 receptor (1–425 amino acids) D256A (human) (UniProt P25116)
T2 sequence: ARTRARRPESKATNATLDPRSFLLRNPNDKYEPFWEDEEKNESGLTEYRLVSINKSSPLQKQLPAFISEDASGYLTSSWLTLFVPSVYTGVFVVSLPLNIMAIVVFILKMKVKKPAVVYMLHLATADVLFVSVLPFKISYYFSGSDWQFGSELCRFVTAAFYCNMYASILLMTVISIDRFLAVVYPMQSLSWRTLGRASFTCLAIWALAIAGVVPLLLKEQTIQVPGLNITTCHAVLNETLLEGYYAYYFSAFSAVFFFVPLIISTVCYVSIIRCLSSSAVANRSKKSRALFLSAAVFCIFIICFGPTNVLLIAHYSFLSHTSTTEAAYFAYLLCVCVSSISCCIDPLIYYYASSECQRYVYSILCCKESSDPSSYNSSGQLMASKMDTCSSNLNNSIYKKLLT

NanoBiT Gαq–Gγ dissociation in HEK293T cells induced by the synthesized TA peptide; fold decrease of potency against WT PAR1 [1]: 158 fold
NanoBiT Gαq–Gγ dissociation in HEK293T cells induced by the synthesized TA peptide; fold decrease of potency against WT PAR1 [2]: 33 fold
Binder: SFLLRN [Synthesized TA peptide (SFLLRN)]
